Source: patent US20230174628A1

Target: RBD of the recombinantly expressed S protein (SARS-CoV-2) (UniProt P0DTC2)
Assay: ELISA, plate coated with RBD at 0.01 µg/ml, HRP goat anti-human IgG Fc

Irrelevant antibody
OD450 reading: 0.006 OD450
